Key:
[1] = biological target: Serum albumin (human) (UniProt P02768); assay: PIF affinity resin pull-down, CD4+ cell lysate, LC-MS/MS count
[2] = biological target: Calreticulin (human) (UniProt P27797); assay: as above
[3] = biological target: Isoform 11 of Titin (human) (UniProt Q8WZ42); assay: as above
[4] = biological target: Serine/arginine-rich-splicing factor 1 (human) (UniProt Q07955); assay: as above
[5] = biological target: Serum albumin (human) (UniProt P02768); assay: PIF affinity resin pull-down, CD8+ cell lysate, LC-MS/MS count
[6] = biological target: Acidic leucine-rich nuclear phosphoprotein 32 family member A (human) (UniProt P39687); assay: as above
Chain of Acidic leucine-rich nuclear phosphoprotein 32 family member A (human) (P39687 whole entry, canonical isoform): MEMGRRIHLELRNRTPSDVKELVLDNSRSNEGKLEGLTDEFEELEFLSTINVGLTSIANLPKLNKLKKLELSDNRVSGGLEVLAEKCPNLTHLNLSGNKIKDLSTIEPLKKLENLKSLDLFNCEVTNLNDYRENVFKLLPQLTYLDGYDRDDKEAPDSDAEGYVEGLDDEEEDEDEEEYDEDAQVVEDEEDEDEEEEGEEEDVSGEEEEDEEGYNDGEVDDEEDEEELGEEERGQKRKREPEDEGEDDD

[7] = biological target: Isoform 2 of Heat shock protein HSP 90-alpha (human) (UniProt P07900); assay: as above
[8] = biological target: 14-3-3 protein zeta/delta (human) (UniProt P63104); assay: as above
Chain of 14-3-3 protein zeta/delta (human) (P63104 whole entry, stated change not applied): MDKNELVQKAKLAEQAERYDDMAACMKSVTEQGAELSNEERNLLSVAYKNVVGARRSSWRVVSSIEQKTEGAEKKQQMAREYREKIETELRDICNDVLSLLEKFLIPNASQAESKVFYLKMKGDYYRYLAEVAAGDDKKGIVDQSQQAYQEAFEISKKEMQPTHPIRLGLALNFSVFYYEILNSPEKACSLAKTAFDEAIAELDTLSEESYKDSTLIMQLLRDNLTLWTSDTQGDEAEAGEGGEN

[9] = biological target: Actin, cytoplasmic 1 (human) (UniProt P60709); assay: as above
[10] = biological target: Thrombospondin-1 (human) (UniProt P07996); assay: as above
[11] = biological target: Calmodulin (human) (UniProt P0DP23); assay: as above
[12] = biological target: Isoform 2 of Protein SET (human) (UniProt Q01105); assay: as above
Chain of Isoform 2 of Protein SET (human) (Q01105 other isoform, or with tags, fused parts or gaps limits assumed): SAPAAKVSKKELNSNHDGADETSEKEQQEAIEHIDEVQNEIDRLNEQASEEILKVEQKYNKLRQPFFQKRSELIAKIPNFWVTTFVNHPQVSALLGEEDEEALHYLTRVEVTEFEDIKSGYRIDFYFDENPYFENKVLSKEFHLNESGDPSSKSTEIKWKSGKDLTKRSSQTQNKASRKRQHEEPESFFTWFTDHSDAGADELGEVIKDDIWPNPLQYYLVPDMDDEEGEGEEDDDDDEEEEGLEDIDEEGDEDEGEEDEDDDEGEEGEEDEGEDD

[13] = biological target: Calreticulin (human) (UniProt P27797); assay: as above
[14] = biological target: Hepatoma-derived growth factor (human) (UniProt P51858); assay: as above
Chain of Hepatoma-derived growth factor (human) (P51858 whole entry): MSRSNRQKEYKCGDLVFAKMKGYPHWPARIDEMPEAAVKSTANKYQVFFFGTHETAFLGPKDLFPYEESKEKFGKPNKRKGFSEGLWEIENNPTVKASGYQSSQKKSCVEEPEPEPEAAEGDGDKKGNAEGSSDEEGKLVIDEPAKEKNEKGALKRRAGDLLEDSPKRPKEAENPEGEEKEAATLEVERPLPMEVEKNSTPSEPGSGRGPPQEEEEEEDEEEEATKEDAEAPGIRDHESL

[15] = biological target: Talin-1 (human) (UniProt Q9Y490); assay: as above
[16] = biological target: Nucleolin (human) (UniProt P19338); assay: as above
Chain of Nucleolin (human) (P19338 2-710 limits assumed): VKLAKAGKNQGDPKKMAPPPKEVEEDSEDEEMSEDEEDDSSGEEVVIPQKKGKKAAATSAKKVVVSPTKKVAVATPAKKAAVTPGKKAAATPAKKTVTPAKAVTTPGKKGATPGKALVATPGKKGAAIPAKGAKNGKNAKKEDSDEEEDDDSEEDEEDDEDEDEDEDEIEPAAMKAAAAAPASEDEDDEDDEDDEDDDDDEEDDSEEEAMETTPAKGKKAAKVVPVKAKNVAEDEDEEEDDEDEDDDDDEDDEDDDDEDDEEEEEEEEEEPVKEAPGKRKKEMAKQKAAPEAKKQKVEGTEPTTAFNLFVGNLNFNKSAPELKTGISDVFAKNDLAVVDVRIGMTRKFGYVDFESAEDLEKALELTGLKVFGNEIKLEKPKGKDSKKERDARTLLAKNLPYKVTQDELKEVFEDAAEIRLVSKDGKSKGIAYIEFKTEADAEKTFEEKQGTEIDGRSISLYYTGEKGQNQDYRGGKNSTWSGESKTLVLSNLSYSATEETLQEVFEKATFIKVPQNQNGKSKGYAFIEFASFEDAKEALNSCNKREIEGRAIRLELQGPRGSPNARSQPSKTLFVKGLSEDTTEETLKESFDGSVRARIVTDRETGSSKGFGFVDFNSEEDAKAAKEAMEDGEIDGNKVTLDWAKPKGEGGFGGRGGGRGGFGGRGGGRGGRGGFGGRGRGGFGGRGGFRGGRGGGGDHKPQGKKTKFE

[17] = biological target: Serum deprivation-response protein (human) (UniProt O95810); assay: as above
Chain of Serum deprivation-response protein (human) (O95810 2-425 limits assumed): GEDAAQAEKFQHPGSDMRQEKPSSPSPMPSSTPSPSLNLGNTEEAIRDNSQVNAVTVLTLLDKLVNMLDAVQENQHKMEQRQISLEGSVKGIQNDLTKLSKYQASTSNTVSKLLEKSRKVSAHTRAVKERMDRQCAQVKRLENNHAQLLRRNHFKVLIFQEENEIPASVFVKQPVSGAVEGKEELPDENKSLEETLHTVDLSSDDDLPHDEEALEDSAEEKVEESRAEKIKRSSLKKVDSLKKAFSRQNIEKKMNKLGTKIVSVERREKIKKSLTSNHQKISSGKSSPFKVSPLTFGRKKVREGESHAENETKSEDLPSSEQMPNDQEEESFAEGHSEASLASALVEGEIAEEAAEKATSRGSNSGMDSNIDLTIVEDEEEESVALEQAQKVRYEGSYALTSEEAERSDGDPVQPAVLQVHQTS

[18] = biological target: Serine/arginine-rich-splicing factor 1 (human) (UniProt Q07955); assay: as above
[19] = biological target: Thrombospondin-4 (human) (UniProt P35443); assay: as above
[20] = biological target: Cartilage oligomeric matrix protein (human) (UniProt P49747); assay: as above
Chain of Cartilage oligomeric matrix protein (human) (P49747 21-757 limits assumed): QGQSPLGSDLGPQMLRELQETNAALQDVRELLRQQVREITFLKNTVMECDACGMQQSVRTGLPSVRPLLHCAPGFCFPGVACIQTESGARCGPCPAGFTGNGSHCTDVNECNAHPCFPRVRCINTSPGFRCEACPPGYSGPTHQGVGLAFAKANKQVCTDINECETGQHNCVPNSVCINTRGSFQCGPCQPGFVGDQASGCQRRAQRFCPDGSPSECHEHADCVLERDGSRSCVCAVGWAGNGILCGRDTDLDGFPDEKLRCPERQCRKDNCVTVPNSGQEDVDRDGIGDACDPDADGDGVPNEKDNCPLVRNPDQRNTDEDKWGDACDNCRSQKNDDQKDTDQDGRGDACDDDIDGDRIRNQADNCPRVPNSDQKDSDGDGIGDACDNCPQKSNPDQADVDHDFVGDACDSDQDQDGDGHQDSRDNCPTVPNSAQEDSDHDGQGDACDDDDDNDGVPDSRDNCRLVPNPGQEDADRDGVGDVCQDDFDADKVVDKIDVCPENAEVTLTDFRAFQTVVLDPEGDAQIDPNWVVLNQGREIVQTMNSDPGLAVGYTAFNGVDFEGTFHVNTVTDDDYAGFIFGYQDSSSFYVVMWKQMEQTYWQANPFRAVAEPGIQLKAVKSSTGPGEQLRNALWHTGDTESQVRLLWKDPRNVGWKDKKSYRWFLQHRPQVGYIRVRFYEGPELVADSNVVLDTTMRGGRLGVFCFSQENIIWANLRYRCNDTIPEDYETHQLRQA

[21] = biological target: Cofilin-1 (human) (UniProt P23528); assay: as above
Chain of Cofilin-1 (human) (P23528 2-166 limits assumed): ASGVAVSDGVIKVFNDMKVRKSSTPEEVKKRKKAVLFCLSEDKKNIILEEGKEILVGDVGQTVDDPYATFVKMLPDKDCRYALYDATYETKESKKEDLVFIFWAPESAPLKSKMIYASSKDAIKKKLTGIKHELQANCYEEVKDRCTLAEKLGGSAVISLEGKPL

[22] = biological target: Nuclease-sensitive element-binding protein 1 (Fragment) (human) (UniProt P67809); assay: as above
Chain of Nuclease-sensitive element-binding protein 1 (Fragment) (human) (P67809 2-324 limits assumed): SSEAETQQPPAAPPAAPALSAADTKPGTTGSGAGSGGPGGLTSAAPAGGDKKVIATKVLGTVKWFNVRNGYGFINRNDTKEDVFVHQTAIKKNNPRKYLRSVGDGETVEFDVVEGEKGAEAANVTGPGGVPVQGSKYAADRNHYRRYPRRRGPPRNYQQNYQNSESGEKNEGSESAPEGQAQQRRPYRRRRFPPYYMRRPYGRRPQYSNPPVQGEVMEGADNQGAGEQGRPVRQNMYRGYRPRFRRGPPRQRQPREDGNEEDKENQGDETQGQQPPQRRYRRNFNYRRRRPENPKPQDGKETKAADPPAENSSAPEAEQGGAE

[23] = biological target: Tropomyosin alpha-4 chain (human) (UniProt P67936); assay: as above
Chain of Tropomyosin alpha-4 chain (human) (P67936 2-248 limits assumed): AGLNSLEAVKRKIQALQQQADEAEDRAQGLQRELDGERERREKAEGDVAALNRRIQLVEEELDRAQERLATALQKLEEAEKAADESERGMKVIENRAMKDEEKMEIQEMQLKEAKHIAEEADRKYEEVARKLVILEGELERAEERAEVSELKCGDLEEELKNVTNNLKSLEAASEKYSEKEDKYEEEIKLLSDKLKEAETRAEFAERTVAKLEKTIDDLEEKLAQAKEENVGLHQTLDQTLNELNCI

[24] = biological target: Thymosin alpha-1 (human) (UniProt P06454); assay: as above
Chain of Thymosin alpha-1 (human) (P06454 other isoform, or with tags, fused parts or gaps limits assumed): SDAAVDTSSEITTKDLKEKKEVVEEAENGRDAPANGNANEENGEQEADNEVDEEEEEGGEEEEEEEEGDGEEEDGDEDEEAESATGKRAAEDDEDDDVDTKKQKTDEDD

Chain of Calreticulin (human) (P27797 18-417 limits assumed): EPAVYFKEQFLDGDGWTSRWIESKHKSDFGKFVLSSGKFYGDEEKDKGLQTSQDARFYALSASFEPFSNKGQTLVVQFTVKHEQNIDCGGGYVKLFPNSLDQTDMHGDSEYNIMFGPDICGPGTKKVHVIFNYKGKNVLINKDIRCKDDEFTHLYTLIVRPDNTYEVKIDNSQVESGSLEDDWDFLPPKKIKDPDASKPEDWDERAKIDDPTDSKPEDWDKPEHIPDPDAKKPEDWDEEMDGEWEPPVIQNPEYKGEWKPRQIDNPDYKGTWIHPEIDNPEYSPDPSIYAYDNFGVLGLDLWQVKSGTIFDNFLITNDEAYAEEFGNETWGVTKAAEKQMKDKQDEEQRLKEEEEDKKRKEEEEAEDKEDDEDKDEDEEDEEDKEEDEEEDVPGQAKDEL
Chain of Serine/arginine-rich-splicing factor 1 (human) (Q07955 2-248 limits assumed): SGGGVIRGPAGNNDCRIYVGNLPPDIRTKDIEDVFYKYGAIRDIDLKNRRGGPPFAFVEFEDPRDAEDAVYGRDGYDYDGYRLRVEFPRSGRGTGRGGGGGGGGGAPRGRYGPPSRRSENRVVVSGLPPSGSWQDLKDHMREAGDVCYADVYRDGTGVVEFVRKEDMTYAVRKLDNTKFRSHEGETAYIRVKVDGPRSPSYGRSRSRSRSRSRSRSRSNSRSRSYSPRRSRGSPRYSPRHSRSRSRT

Substance: PIF15 affinity resin (Cys-C6 spacer-PIF15 conjugated to agarose) (peptide)
- Ave [1]: 8
- Inject 1 [1]: 4
- Inject 2 [1]: 7
- Inject 3 [1]: 12
- Ave [2]: 4
- Inject 1 [2]: 4
- Inject 2 [2]: 4
- Inject 3 [2]: 4
- Ave [3]: 2
- Inject 1 [3]: 2
- Inject 2 [3]: 2
- Inject 3 [3]: 2
- Ave [4]: 2
- Inject 1 [4]: 2
- Inject 2 [4]: 2
- Inject 3 [4]: 2
- Ave [5]: 6
- Inject 1 [5]: 3
- Inject 2 [5]: 6
- Inject 3 [5]: 8
- Ave [6]: 2
- Inject 1 [6]: 2
- Inject 2 [6]: 2
- Inject 3 [6]: 2
- Ave [7]: 2
- Inject 1 [7]: 2
- Inject 2 [7]: 2
- Inject 3 [7]: 2
- Ave [8]: 2
- Inject 1 [8]: 2
- Inject 2 [8]: 2
- Inject 3 [8]: 2
- Ave [9]: 3
- Inject 1 [9]: 3
- Inject 2 [9]: 3
- Inject 3 [9]: 3
- Ave [10]: 7
- Inject 1 [10]: 7
- Inject 2 [10]: 7
- Inject 3 [10]: 7
- Ave [11]: 2
- Inject 1 [11]: 2
- Inject 2 [11]: 2
- Inject 3 [11]: 2
- Ave [12]: 1
- Inject 1 [12]: 1
- Inject 2 [12]: 1
- Inject 3 [12]: 1
- Ave [13]: 2
- Inject 1 [13]: 2
- Inject 2 [13]: 2
- Inject 3 [13]: 2
- Ave [14]: 1
- Inject 1 [14]: 1
- Inject 2 [14]: 1
- Inject 3 [14]: 1
- Ave [15]: 1
- Inject 1 [15]: 1
- Inject 2 [15]: 1
- Inject 3 [15]: 1
- Ave [16]: 1
- Inject 1 [16]: 1
- Inject 2 [16]: 1
- Inject 3 [16]: 1
- Ave [17]: 2
- Inject 1 [17]: 2
- Inject 2 [17]: 2
- Inject 3 [17]: 2
- Ave [18]: 1
- Inject 1 [18]: 1
- Inject 2 [18]: 1
- Inject 3 [18]: 1
- Ave [19]: 3
- Inject 1 [19]: 3
- Inject 2 [19]: 3
- Inject 3 [19]: 3
- Ave [20]: 4
- Inject 1 [20]: 4
- Inject 2 [20]: 4
- Inject 3 [20]: 5
- Ave [21]: 1
- Inject 1 [21]: 1
- Inject 2 [21]: 1
- Inject 3 [21]: 1
- Ave [22]: 1
- Inject 1 [22]: 1
- Inject 2 [22]: 1
- Inject 3 [22]: 1
- Ave [23]: 3
- Inject 1 [23]: 3
- Inject 2 [23]: 3
- Inject 3 [23]: 3
- Ave [24]: 3
- Inject 1 [24]: 2
- Inject 2 [24]: 2
- Inject 3 [24]: 4
